Target: T1, His-SAPK9 (rice, UniProt Q75V57 1-361)
T1 construct: SnRK2-type protein kinase SAPK9 from rice; source: E. coli DE3, pET-32a (+), purified
T1 sequence (looked up): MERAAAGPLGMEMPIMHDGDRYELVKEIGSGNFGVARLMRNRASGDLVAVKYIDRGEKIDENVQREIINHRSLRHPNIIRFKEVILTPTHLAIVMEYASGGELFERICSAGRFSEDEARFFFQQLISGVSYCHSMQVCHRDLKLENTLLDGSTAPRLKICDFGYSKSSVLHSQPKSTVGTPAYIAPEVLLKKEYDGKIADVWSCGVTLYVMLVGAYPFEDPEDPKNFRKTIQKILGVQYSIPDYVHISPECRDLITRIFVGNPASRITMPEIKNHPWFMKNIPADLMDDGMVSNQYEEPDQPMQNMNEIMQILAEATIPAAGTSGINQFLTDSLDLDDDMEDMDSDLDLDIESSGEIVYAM
Experiment: pull-down; 0.5 mg GST-OsMADS23 or GST on GST Bind Resin, 4°C, 2 h; then 0.5 mg purified His-SAPK9 for 2 h; three washes; western blot with anti-His
Conditions: both partners purified

- binding result: binds
B1: GST-tagged OsMADS23 (natural protein)
chain: not shown
notes: MADS-box transcription factor OsMADS23 from rice; Printed as GST-OsMADS23; also called GST-OsMADS23; source: E. coli BL21 (DE3), pGEX-4T-1, purified
